In PMC10397247:
Values belong to the binder of their own block, whether it stands above or below them.

Experiments:
[1] = target: T1, P7A; assay: two-hybrid library CCNG1;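 also: natural log of median RNA to DNA barcode read ratio; higher means stronger binding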
T1 chain: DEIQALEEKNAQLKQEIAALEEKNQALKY

[2] = target: T2, P9A; assay: two-hybrid library CCNG1;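 also: natural log of median RNA to DNA barcode read ratio; higher means stronger binding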
T2 chain: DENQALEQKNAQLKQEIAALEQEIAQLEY

[3] = target: T3, P8A; assay: two-hybrid library CCNG1;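 also: natural log of median RNA to DNA barcode read ratio; higher means stronger binding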
T3 chain: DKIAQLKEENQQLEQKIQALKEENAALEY

[4] = target: T4, 4H591-bH; assay: two-hybrid library CCNG1;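 also: natural log of median RNA to DNA barcode read ratio; higher means stronger binding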
T4 chain: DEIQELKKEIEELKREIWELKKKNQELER

[5] = target: T5, O2-bN; assay: two-hybrid library CCNG1;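 also: natural log of median RNA to DNA barcode read ratio; higher means stronger binding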
T5 chain: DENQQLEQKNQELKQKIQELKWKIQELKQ

[6] = target: T6, 4H3497-bH; assay: two-hybrid library CCNG1;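 also: natural log of median RNA to DNA barcode read ratio; higher means stronger binding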
T6 chain: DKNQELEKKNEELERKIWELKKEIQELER

[7] = target: T7, 4H3462-bH; assay: two-hybrid library CCNG1
T7 chain: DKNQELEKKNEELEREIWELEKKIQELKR

[8] = target: T8, 4H3628-bH; assay: two-hybrid library CCNG1
T8 chain: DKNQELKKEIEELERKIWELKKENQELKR

[9] = target: T9, 4H3613-bH; assay: two-hybrid library CCNG1
T9 chain: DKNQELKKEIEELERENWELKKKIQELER

[10] = target: T10, 4H906-bH; assay: two-hybrid library CCNG1
T10 chain: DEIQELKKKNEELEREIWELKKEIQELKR

[11] = target: T11, 4H626-bH; assay: two-hybrid library CCNG1
T11 chain: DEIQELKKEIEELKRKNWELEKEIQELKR

[12] = target: T12, 4H3926-bH; assay: two-hybrid library CCNG1
T12 chain: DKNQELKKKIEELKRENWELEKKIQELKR

[13] = target: T13, 4H58-AA; assay: two-hybrid library CCmax; conditions: mean of both orientations
T13 chain: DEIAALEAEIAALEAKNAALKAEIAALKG

[14] = target: T14, 4H3651-AA; assay: two-hybrid library CCmax; conditions: mean of both orientations
T14 chain: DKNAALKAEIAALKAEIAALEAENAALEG

[15] = target: T15, 4H3365-AA; assay: two-hybrid library CCmax
T15 chain: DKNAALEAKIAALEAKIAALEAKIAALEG

[16] = target: T16, 4H_APH; assay: two-hybrid library CCmax; conditions: mean of both orientations
T16 chain: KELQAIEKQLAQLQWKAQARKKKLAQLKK

[17] = target: T17, 4H355-AA; assay: two-hybrid library CCmax; conditions: mean of both orientations
T17 chain: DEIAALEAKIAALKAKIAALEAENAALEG

[18] = target: GCN2_T; assay: two-hybrid library CCmax
[19] = target: 4H_GCN4; assay: two-hybrid library CCmax
Sequence of 4H_GCN4 (chain, as listed by the source): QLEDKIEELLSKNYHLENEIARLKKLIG

[20] = target: T18, P3-AA; assay: two-hybrid library CCmax
T18 chain: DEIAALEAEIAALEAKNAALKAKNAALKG

[21] = target: T19, 4H895-AA; assay: two-hybrid library CCmax; conditions: mean of both orientations
T19 chain: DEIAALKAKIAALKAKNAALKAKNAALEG

[22] = target: T20, 4H465-AA; assay: two-hybrid library CCmax; conditions: mean of both orientations
T20 chain: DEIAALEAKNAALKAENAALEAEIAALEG

[23] = target: T21, 4H3782-AA; assay: two-hybrid library CCmax; conditions: mean of both orientations
T21 chain: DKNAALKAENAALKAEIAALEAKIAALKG

[24] = target: T22, 4H535-AA; assay: two-hybrid library CCmax; conditions: mean of both orientations
T22 chain: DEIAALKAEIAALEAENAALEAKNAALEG

[25] = target: T23, 4H3705-AA; assay: two-hybrid library CCmax; conditions: mean of both orientations
T23 chain: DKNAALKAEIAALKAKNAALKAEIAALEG

[26] = target: T24, 4H486-AA; assay: two-hybrid library CCmax; conditions: mean of both orientations
T24 chain: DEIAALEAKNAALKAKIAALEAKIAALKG

[27] = target: T25, 4H_BCR; assay: two-hybrid library CCmax; conditions: mean of both orientations
T25 chain: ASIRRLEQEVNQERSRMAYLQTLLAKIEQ

interaction score [1]: -0.598
interaction score [2]: -0.697
interaction score [3]: 2.24
Binder: DEIQALEEKNAQLKQEIAALEEKNQALKY [P7A]

interaction score [4]: -0.285
interaction score [5]: 1.13
interaction score [6]: 1.43
interaction score [7]: 0.634
interaction score [8]: 0.726
interaction score [9]: -0.585
interaction score [10]: 0.0503
interaction score [11]: -0.748
interaction score [12]: 0.869
Binder: DKNQELEKKNEELEREIWELEKKIQELKR [4H3462-bH]

interaction score [13]: -1.67
interaction score [14]: -0.441
interaction score [15]: 1.76
interaction score [16]: -1.21
interaction score [17]: -0.823
interaction score [18]: -1.79
interaction score [19]: -1.72
interaction score [20]: -2.3
interaction score [21]: -1.35
interaction score [22]: -1.05
interaction score [23]: -1.46
interaction score [24]: -1.33
interaction score [25]: -1.25
interaction score [26]: -1.2
interaction score [27]: -1.47
Binder: DKNAALEAKIAALEAKIAALEAKIAALEG [4H3365-AA]
